Patent publication US20230312724A1 (KADMON, published 2023)

T1: mouse B7-H4 expressed on cells (mouse, UniProt Q7TSP5 25-257)
T1 construct: also called cellular mB7-H4; mB7-H4/CT26
T1 sequence: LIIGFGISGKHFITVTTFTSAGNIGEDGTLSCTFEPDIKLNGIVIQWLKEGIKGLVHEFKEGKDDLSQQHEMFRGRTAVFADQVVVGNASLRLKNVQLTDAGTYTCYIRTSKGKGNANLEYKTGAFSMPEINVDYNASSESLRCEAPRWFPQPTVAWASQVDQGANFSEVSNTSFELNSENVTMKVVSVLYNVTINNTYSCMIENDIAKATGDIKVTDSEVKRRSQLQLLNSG

T2: hB7-H4 (soluble human B7-H4, construct not named) (human, UniProt Q7Z7D3 25-259, limits assumed)
T2 construct: also called soluble hB7-H4
T2 sequence: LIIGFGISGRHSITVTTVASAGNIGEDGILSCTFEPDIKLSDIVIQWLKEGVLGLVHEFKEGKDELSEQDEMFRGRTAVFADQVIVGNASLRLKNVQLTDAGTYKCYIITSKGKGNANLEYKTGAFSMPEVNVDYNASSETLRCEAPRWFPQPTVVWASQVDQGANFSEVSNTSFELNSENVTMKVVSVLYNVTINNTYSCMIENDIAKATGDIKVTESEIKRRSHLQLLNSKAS

T3: human B7-H4 expressed on cells (human, UniProt Q7Z7D3 25-282)
T3 construct: Transfected CHO cells or tumor cell lines that carry hB7-H4; also called cellular hB7-H4
T3 sequence: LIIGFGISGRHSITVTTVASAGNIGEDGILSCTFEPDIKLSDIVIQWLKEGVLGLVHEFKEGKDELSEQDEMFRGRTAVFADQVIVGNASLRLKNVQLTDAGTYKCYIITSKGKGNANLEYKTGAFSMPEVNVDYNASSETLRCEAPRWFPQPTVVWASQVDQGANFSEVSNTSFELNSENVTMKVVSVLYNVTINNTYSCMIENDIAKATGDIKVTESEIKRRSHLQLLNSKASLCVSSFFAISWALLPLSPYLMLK

T4: mB7-H4 (soluble mouse B7-H4, construct not named) (mouse, UniProt Q7TSP5 25-257, limits assumed)
T4 sequence: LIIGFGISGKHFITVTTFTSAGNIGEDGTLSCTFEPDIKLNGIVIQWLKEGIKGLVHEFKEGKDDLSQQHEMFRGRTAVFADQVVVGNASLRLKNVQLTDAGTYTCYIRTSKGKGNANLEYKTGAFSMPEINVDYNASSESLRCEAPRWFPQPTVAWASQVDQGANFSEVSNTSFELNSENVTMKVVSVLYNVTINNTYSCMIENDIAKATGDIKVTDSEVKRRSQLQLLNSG

T5: human B7-H4-his (human, UniProt Q7Z7D3 25-259)
T5 construct: also called hB7-H4-his; hB7-H4 his; not shown: his tag
T5 sequence: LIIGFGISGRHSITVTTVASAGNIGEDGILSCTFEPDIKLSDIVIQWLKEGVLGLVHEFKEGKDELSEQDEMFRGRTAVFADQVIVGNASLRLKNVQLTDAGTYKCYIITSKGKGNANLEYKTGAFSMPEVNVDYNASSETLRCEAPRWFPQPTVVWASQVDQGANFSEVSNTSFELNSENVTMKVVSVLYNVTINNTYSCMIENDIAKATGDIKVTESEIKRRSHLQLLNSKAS

T6: mouse B7-H4-his (mouse, UniProt Q7TSP5 25-257)
T6 construct: also called mB7-H4-his; mB7-H4-His; not shown: his tag
T6 sequence: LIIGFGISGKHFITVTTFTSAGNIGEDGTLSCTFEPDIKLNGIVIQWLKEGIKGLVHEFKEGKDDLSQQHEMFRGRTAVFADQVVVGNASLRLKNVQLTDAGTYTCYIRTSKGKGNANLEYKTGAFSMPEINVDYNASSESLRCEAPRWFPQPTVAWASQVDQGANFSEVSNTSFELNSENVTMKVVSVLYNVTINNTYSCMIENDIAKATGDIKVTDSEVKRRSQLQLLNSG


Columns and labels:
[1] = biological target: T1, mouse B7-H4 expressed on cells; test: flow cytometry, mB7-H4/CT26 cells
Summary of the method: (§1)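 Cells at 1×10⁶ cells/ml in ice-cold FACS buffer incubated with serially diluted antibodies or fusion proteins for 1 h at 4 °C. After three washes, secondary antibody (1:200) applied 30 min at 4 °C in the dark; binding read by flow cytometry.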

[2] = biological target: T7, IgC domain of human B7-H4-Fc (human); test: ELISA, coated hB7-H4 IgC domain
T7 construct: also called hB7-H4 IgC domain
T7 sequence (chain, as listed by the source): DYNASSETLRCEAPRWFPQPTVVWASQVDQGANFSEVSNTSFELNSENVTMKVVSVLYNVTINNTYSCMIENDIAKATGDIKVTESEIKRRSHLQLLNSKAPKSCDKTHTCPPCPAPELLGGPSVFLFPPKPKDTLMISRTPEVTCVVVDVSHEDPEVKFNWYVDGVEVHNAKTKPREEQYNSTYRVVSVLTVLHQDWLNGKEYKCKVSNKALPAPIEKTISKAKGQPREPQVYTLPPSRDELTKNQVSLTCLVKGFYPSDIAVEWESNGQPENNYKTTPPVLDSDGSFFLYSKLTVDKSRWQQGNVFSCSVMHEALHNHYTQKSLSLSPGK
Protocol: (§2) About 1-2 μg/ml of human or mouse B7-H4-Fc (or his-tagged) was immobilized on ELISA plates (Immuno 2HB, Thermo scientific, cat #3455) at 4° C. overnight. After blocking the plates with 3% PBS+milk, serial diluted antibodies were added to the blocked plates and incubated at RT for 1-1.5 h. After washing the plates with PBS-T (0.05%), horse radish peroxidase (HRP)-conjugated antibody targeting the hFab was added to the plate. Signals were developed by adding 3,3′,5,5′-Tetramethylbenzidine (TMB (followed 1N of H₂SO₄ to stop the reaction. The OD at 450 nm was read by ELISA plate reader (Infinite M1000 from TECAN). GraphPad from Prism was used to plot OD450 vs. antibody concentration curve and to calculate the EC50 values.

[3] = biological target: T2, hB7-H4 (soluble human B7-H4, construct …); test: ELISA, hB7-H4
Summary of the method: (§3)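 Each antibody, diluted in series, was incubated 1-1.5 h at RT on milk-blocked wells coated with ~1-2 μg/ml human or mouse B7-H4-Fc (or his-tagged) at 4° C overnight. An HRP anti-human Fab with TMB gave the OD450 signal.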

[4] = biological target: T3, human B7-H4 expressed on cells; test: flow cytometry, SK-BR-3 cells
Summary of the method: as §1

[5] = biological target: T8, human B7-H4-Fc (human); test: SPR (Biacore)
T8 construct: also called hB7-H4-Fc; hB7-H4 Fc
T8 sequence (chain, as listed by the source): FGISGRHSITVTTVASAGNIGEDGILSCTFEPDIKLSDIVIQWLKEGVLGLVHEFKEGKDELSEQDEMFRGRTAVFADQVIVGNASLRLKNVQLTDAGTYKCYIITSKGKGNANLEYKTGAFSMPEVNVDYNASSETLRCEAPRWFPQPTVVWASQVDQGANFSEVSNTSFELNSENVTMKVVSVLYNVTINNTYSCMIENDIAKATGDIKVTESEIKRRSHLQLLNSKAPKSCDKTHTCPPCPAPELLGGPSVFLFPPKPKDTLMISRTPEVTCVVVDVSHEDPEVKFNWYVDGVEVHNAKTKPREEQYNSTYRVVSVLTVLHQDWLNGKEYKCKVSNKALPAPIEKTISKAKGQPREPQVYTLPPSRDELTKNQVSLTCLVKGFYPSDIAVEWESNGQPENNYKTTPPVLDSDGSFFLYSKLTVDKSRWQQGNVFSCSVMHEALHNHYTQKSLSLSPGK

[6] = biological target: T9, mouse B7-H4-Fc (mouse; human); test: SPR (Biacore)
T9 construct: also called mB7-H4-Fc; mB7-H4-hFc
T9 sequence (chain, as listed by the source): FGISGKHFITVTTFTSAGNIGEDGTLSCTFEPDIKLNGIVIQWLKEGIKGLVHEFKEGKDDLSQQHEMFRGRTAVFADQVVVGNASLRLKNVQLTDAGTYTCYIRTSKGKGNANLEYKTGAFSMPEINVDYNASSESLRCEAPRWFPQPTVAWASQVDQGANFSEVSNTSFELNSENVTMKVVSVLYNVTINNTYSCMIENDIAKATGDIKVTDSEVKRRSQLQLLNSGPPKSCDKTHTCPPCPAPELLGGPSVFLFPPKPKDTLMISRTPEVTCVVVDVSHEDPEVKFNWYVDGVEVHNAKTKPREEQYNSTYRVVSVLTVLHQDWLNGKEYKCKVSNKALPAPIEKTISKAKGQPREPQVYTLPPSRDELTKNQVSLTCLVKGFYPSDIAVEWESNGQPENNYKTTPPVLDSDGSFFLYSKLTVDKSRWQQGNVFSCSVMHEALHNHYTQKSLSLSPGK

[7] = biological target: T10, IgV domain of human B7-H4-Fc (human); test: ELISA, coated hB7-H4 IgV domain
T10 construct: also called hB7-H4 IgV domain
T10 sequence (chain, as listed by the source): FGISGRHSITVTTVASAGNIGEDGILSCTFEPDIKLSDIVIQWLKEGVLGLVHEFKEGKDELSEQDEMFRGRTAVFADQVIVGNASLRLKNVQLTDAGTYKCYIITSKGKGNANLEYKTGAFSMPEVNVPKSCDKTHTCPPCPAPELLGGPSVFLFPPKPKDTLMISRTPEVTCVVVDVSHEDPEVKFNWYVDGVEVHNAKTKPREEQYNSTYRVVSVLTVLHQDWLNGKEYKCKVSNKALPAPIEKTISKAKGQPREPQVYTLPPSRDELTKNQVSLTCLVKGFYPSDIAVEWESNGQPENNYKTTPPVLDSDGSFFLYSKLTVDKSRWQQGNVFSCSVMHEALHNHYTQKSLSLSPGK

[8] = biological target: T11, IgC domain of mouse B7-H4-Fc (mouse; human); test: ELISA, coated mB7-H4 IgC domain
T11 construct: also called mB7-H4 IgC domain
T11 sequence (chain, as listed by the source): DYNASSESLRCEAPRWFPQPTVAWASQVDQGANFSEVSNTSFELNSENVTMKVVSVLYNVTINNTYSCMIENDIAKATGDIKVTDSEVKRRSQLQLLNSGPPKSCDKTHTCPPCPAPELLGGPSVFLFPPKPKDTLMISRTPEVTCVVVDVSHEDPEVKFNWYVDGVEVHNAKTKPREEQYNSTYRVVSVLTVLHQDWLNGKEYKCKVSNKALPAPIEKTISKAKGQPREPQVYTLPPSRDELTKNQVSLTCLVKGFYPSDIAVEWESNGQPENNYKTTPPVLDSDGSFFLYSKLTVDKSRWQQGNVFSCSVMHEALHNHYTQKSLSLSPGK
Protocol: as §2

[9] = biological target: T12, IgV domain of mouse B7-H4-Fc (mouse; human); test: ELISA, coated mB7-H4 IgV domain
T12 construct: also called mB7-H4 IgV domain
T12 sequence (chain, as listed by the source): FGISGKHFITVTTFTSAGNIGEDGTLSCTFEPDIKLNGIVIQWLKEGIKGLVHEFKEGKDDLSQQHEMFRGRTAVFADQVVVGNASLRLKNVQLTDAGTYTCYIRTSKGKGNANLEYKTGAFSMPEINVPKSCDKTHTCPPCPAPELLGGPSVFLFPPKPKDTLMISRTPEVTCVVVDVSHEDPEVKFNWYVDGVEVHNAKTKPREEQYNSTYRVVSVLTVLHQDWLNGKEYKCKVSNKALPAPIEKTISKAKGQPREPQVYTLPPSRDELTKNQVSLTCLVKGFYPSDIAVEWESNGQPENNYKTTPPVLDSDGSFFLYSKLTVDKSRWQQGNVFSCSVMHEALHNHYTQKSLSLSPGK

[10] = biological target: T4, mB7-H4 (soluble mouse B7-H4, construct …); test: SPR (Biacore)
Summary of the method: (§4)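 Ligands (human B7-H4-Fc, human B7-H4-his, mouse B7-H4-Fc) were amine-coupled to CM5 chips at 50-100 RU. Analyte was injected at 100 nM to 0.1 nM in HBS-EP, pH 7.4, at 25 °C, with 180 s association and 1000 or 1200 s dissociation. Kinetics were fitted to a 1:1 Langmuir model.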

[11] = biological target: T2, hB7-H4 (soluble human B7-H4, construct …); test: SPR (Biacore)
Summary of the method: as §4

[12] = biological target: T4, mB7-H4 (soluble mouse B7-H4, construct …); test: ELISA, mB7-H4
Summary of the method: as §3

[13] = biological target: T4, mB7-H4 (soluble mouse B7-H4, construct …); test: summary of ELISA and flow cytometry
[14] = biological target: T1, mouse B7-H4 expressed on cells; test: flow cytometry, CHO cells expressing mB7-H4
[15] = biological target: T10, IgV domain of human B7-H4-Fc; test: ELISA, coated hB7-H4 IgV domain; remark: listed apart in the source
Protocol: as §2

[16] = biological target: T5, human B7-H4-his; test: SPR (Biacore)
[17] = biological target: T6, mouse B7-H4-his; test: SPR (Biacore)
[18] = biological target: T12, IgV domain of mouse B7-H4-Fc; test: ELISA, coated mB7-H4 IgV domain; remark: listed apart in the source
Summary of the method: as §3

[19] = biological target: T8, human B7-H4-Fc; test: ELISA, coated hB7-H4-Fc
Protocol: as §2

[20] = biological target: T9, mouse B7-H4-Fc; test: ELISA, coated mB7-H4-Fc
Summary of the method: as §3

| Binder | EC50 [1] | binding result [2] | EC50 [3] | EC50 [4] | Kd [5] | Kd [6] | EC50 (read off the curve) [7] | binding result [8] | EC50 (read off the curve) [9] | Kd [10] | Kd [11] | EC50 [12] | binding result [13] | binding result [14] | binding result [15] | Kd [16] | binding result [17] | binding result [18] | EC50 (read off the curve) [19] | binding result [20] |
| --- | --- | --- | --- | --- | --- | --- | --- | --- | --- | --- | --- | --- | --- | --- | --- | --- | --- | --- | --- | --- |
| 39A11/39A11 (antibody, human IgG1, V domains shown) VH: EVQLLESGGGLVQPGGSLRLSCAASGFTFSSYGMHWVRQAPGKGLEWVASISSSSGYIYYADSVKGRFTISRDNSKNTLYLQMNSLRAEDTAVYYCARASSGMDVWGQGTTVTVSS VL: DIQMTQSPSSLSASVGDRVTITCRASQTIRSYLNWYQQKPGKAPKLLIYAASHLQSGVPSRFSGSGSGTDFTLTISSLQPEDFATYYCQQSYTTPYTFGQGTKLEIK | 6.73 nM | no binding (tested: axis value -8 (labelled log nM)) | 0.08 nM | 4.17 nM | 0.926 nM | 1.53 nM | ~0.3 nM | no binding (tested: axis value -8 (labelled log nM)) | ~0.2 nM | 13 nM | 1.05 nM | 0.136 nM |  |  |  |  |  |  |  |  |
| 4B9/4B9 (antibody, human IgG1, V domains shown) VH: QVQLVQSGAEVKKPGASVKVSCKASGYTFTSYYMHWVRQAPGQGLEWMGWMNPNSGNTGYAQKFQGRVTMTRDTSTSTVYMELSSLRSEDTAVYYCARGQGRYLNYYYMDVWGKGTTVTVSS VL: DIQMTQSPSSLSASVGDRVTITCRVSQGISNYLAWYQQKPGKAPKLLIYDASSLQSGVPSRFSGSGSGTDFTLTISSLQPEDFATYYCQQSYSTPFTFGPGTKVDIK |  |  |  |  | 2.89 nM |  |  |  |  |  |  |  | no binding | no binding | no binding (tested: 20 nM) | 4.13 nM | no binding | no binding (tested: 20 nM) | ~0.07 nM | no binding (tested: 20 nM) |
